The series can be described thus: soluble on expression in E. coli; label from the status in PepcDB or PDB records.
“GMNTLLKQLKPYPFARLHEAMQGISAPEGMEAVPLHIGEPKHPTPKVITDALTASLHELEKYPLTAGLPELRQACANWLKRRYDGLTVDADNEILPVLGSREALFSFVQTVLNPVSDGIKPAIVSPNPFYQIYEGATLLGGGEIHFANCPAPSFNPDWRSISEEVWKRTKLVFVCSPNNPSGSVLDLDGWKEVFDLQDKYGFIIASDECYSEIYFDGNKPLGCLQAAAQLGRSRQKLLMFTSLSKRSNVPGLRSGFVAGDAELLKNFLLYRTYHGSAMSIPVQRASIAAWDDEQHVIDNRRLYQEKFERVIPILQQVFDVKLPDASFYIWLKVPDGDDLAFARNLWQKAAIQVLPGRFLARDTEQGNPGEGYVRIALVADVATCVKAAEDIVSLYR”: the “soluble on expression in E. coli” value was “soluble”.
In the case of “GMQKTAFIWDLDGTLLDSYEAILSGIEETFAQFSIPYDKEKVREFIFKYSVQDLLVRVAEDRNLDVEVLNQVRAQSLAEKNAQVVLMPGAREVLAWADESGIQQFIYTHKGNNAFTILKDLGVESYFTEILTSQSGFVRKPSPEAATYLLDKYQLNSDNTYYIGDRTLDVEFAQNSGIQSINFLESTYEGNHRIQALADISRIFETK”, the “soluble on expression in E. coli” value is listed as “soluble”.
In the case of “GMQTLNDIYLAYLDSLNHQAFDELGTFVDDNVEHNGRPFGLSGYRDMLVKDFADIPDLRFEAEILVSDATRLAARLFFDCTPKSIFMDLPVNGRRVQFCEHVFYDFEQAKIRRVWSVLDKVAIERQLG” it was “soluble”; in that of “GMQYATLELNNAFKVLFSLRQVQAAEMVIAPGDREGGPDNRHRGADQWLFVVDGAGEAIVDGHTQALQAGSLIAIERGQAHEIRNTGDTPLKTVNFYHPPAYDAQGEPLPAGEG”, “soluble”.
Regarding “GMREDMKDNVVKDKSLEFAVRIVNLYKFLVNEQKEFVMSKQILRSGTSIGANIREAEQAQSRADFINKLNIALKEANETEYWLELLIRTEYITREQYESINNDSTEINKLLISIIKTTKNN”, the “soluble on expression in E. coli” value is recorded as “soluble”.
Turning to “GMRNMQEKGVSEKEILEELKKYRSLDLKYEDGNIFGSMCSNVLPITRKIVDIFLETNLGDPGLFKGTKLLEEKAVALLGSLLNNKDAYGHIVSGGTEANLMALRCIKNIWREKRRKGLSKNEHPKIIVPITAHFSFEKGREMMDLEYIYAPIKEDYTIDEKFVKDAVEDYDVDGIIGIAGTTELGTIDNIEELSKIAKENNIYIHVDAAFGGLVIPFLDDKYKKKGVNYKFDFSLGVDSITIDPHKMGHCPIPSGGILFKDIGYKRYLDVDAPYLTETRQATILGTRVGFGGACTYAVLRYLGREGQRKIVNECMENTLYLYKKLKENNFKPVIEPILNIVAIEDEDYKEVCKKLRDRGIYVSVCNCVKALRIVVMPHIKREHIDNFIEILNSIKRD”, the “soluble on expression in E. coli” value is “soluble”.
Take “GMSKPAITLWSDAHFFSPYVLSAWVALQEKGLSFHIKTIDLDSGEHLQPTWQGYGQTRRVPLLQIDDFELSESSAIAEYLEDRFAPPTWERIYPLDLENRARARQIQAWLRSDLMPIREERPTDVVFAGAKKAPLTAEGKASAEKLFAMAEHLLVLGQPNLFGEWCIADTDLALMINRLVLHGDEVPERLVDYATFQWQRASVQRFIALSAKQSG”: the “soluble on expression in E. coli” value is recorded as “soluble”.
For the sequence “GMTDTNLVEMRAIERMMFDYSYHLDMNHPEELAALFVEDCEVSYAPNFGATGRDAYKKTLEGIGTFFRGTSHHNSNICIDFVSETEANVRSVVLAIHRYTKERPDGILYGQYFDTVVKVDGQWKFKRRELRTTMTTDYHVRAANPIGRAE”, the “soluble on expression in E. coli” value is reported as “soluble”.
As for “GMTDWQQALDRHVGVGVRTTRDLIRLIQPEDWDKRPISGKRSVYEVAVHLAVLLEADLRIATGATADEMAQFYAVPVLPEQLVDRLDQSWQYYQDRLMADFSTETTYWGVTDSTTGWLLEAAVHLYHHRSQLLDYLNLLGYDIKLDLFE”, the “soluble on expression in E. coli” value was “soluble”.
To “GMTISRNYDQEIKDTAGHKYAYNFDFDVMHPFMVRAFTPFFRPGNLLELGSFKGDFTSRLQEHFNDITCVEASEEAISHAQGRLKDGITYIHSRFEDAQLPRRYDNIVLTHVLEHIDDPVALLKRINDDWLAEGGRLFLVCPNANAVSRQIAVKMGIISHNSAVTEAEFAHGHRCTYALDTLERDASRAGLQVTYRSGIFFKALANFQWDQILQTDILSKEYLDGCYQLGQQYPDLCASIFLLCEKGINQ” belongs “soluble”.
Regarding “GMTLAALCQGVLERLDPRQPGRQLVALSGAPGSGKSTLSNPLAAALSAQGLPAEVVPMDGFHLDNRLLEPRGLLPRKGAPETFDFEGFQRLCHALKHQERVIYPLFDRARDIAIAGAAEVGPECRVAIIEGNYLLFDAPGWRDLTAIWDVSIRLEVPMADLEARLVQRWLDHGLNHDAAVARAQGNDLANARAIEAARLPADLTWPQA”, the “soluble on expression in E. coli” value was “soluble”.
Take “GMWDETELGLYKVNEYVDARDTNMGAWFEAQVVRVTRKAPSRDEPCSSTSRPALEEDVIYHVKYDDYPENGVVQMNSRDVRARARTIIKWQDLEVGQVVMLNYNPDNPKERGFWYDAEISRKRETRTARELYANVVLGDDSLNDCRIIFVDEVFKIERPGE”: the “soluble on expression in E. coli” value is “soluble”.
In the case of “GNDIDYSVGGSVSDAVSEVTEYANAKKNDPYGSWYTGRKVGEIWGYRAEGLIQTQEEADAYNAEYDLSYISGKLWEPGDVKYIDLDGNKVIDRGDNRLVDGDMGDQTIIGNTTPRYQYTFNGYISWKGLSLSVMFQGVGKRDWVAGGAYFWGFGPYAQVTVFKEHMDYWRPDNPGAYYPKPYINSAGGVAPYQDKNIQRTDLYLQNAAYCRLKNLTLSYDLPNAWVHKAGLQKVQVFFSGENLLTFTKLKGMFDPEAIFSSNSYTSEGGKNYPMNRVLSLGFIVNL”, the “soluble on expression in E. coli” value is “not soluble”.
Take “GNIAKPIRILGNGMDRVANGELETRISQQVDDRDDELSHLAIQFDKMVEKLEKLVAKERHLLHHVSHEMRSPLARMQAIVGLIQAQPQKQEQYLKRLEGELTRMDTLAGELLTLSRLETSNMALEKESLKLLPFLGNLVEDNQSIAQKNGQTVTLSADGKIPENTTILANESYLY”: the “soluble on expression in E. coli” value is “not soluble”.
Consider “GNYENINSNPYEAPDLSADGYALGSAMNNLAGCVVSPDVNTAQFTDCLLGGPLGGYFADSNAGFTETISNFNPKDDWSRVFLKSDKIIPTLYSNLTQVKLVSQNTNDPVPYAIAQVIKVAAMHRVTDAFGPIPYSQIGANGEIATPYDSQEVTYNTFFDELNAAIATLNENSNEQLVPTADYIYKGDVKKWIRFANSLKLRLAIRIAYANPVKAQQMAEEAVNPANGGVIESNADNATWNYFETSQNPIYVATRYNQVQTSDHGGVPCLTGGDTHAAADIICYMNGYKDNRREKFFTKSEWAGQDYVGMRRGIVIPELKTTGHKYSGVNIAPTSPLYWMNAAEVAFLRAEGQAVFNFSMGGTAESFYNQGIRLSFEQWGADGVEDYLKDDVNKPTAYTDPAGTNTYQNALSNITIKWNDSADKEEKQERIIVQKWIANWQLGNEAWADFRRTGYPKLIPVKENKSGGVVDSEKGARRMPYPLDEFVSNKANVEYAIANYLHGADNMATDVWWASKK”, for which the “soluble on expression in E. coli” value is listed as “soluble”.
For “GPEQAMYSFMTYYIAMKTIDAVIQGLDETKAVIIVSEQYDEISDAILHRLGRGTTKLKGKGGYTDEEKDVIYAVVTRLEVTKLKSIVFEVDQNAFITIMNTHETRGGKFKNAIH”, the “soluble on expression in E. coli” value was “not soluble”.
Consider “GPGSAPSKDGHVFEMSRPEQAAYGLAMSLVRWHAFNRFCANCGTATDPTRDVGFSRFCPKCRKQHFPQLVPAVLVAVLDGKGNVILSQRRKESKVLTLLSGFVLHGESAEETVRREVEEESGARVSKVRYIGSQPWPYPYLMMMCYYAVADASPSLVVDASELERVMWVSKQDVRRALEGQHSDMELRGPGTTPYAMLKPWVDGKVDDRGRITKPQSQL”, for which the “soluble on expression in E. coli” value is “not soluble”.
Take “GPGSDGVWLEELEMEPSQYLPDLKEDELLKTPAVMVNLNRPMPEVLQELSKHPVRTRLSLTGTIIVARDSAHARMREMLEAGKPLPQYMKEHPVYYAGPAKQPDGLPSGSFGPTTAGRMDPFVDLFQSHGGSMVMLAKGNRSKQVTKACHKYGGFYLGSIGGPAAVLAQNAIKKVECLDMKDLGMEAVWRIEVENFPAFIVVDDKGNDFFEQL”: the “soluble on expression in E. coli” value was “soluble”.
In the case of “GPGSMAEEIRTMIIGTSSAFRANVLREHFGDRFRNFVLLPPDIDEKAYRAADPFELTESIARAKMKAVLEKARQHSPPISGPAIALTFDQVVVKGDEVREKPLSTEQCRSFIASYSGGGVRTVATYALCVVGTENVLVAHNETETFFSKFGDDIVERTLERGACMNSAGGLVVEDEDMSRHVVRIVGTSYGVRGMEPAVVEKLLSQL” it was “soluble”.
Consider “GPGSMAHCCFLIYPLAKVADESFLQLLFDDSVKRSAFLGYPPRRFAIVELEESQNEAVLRAIGARDDDGRVEAREDNADTPFVDLFTRTGAKKGTDRNEPIGLRMGCIPHLSQVRFRRTYLRVIVSPVTIDELFGCVQKDSNHVKKEKRSLKRSRHTDEDAGPWVPRWPVANGDPTLAGRVEVVSMTGASRAGLSGDPEDERYREPYAECSGGPVCNMSPPKTFLSDDSAGDAAGRRALDVSVQNLIRELGFDK”, for which the “soluble on expression in E. coli” value is on record as “not soluble”.
In the case of “GPGSMAKSSRSKWKKMHRRQRAQAEATNTVKRICLLNKKLKLTVKGGISAVPPQEPEKRFHFLNPVLDSRVPNTRKNLNNNYRAELNHVEYDYTKPLKLAPPKTNMYGKTDVDAPHPMTVMYETIDADTPLAGHALTKADMERLARRQAQQESEASAAVADAEKDASKEDGDNADDGPEEYVFGMEDAAPRRARGQHKTSAKKKGSVAPKALKGAASASVGASSSVSETGSSSRMLAAAAAAMTNEEEEADHRTRNGGVTAVNKIASMQTMRKKNGTMVSAGGASKMKKVGQLGGSSGTRVVSSGGKVARKDVGNAKSGSKR” it was “soluble”; in that of “GPGSMAPLPRKALLAITSAHPPFWPDGKRTGLFFSEALHPFNELTAAGFEVDVASETGTFGWDEHSLTQEYLSKEDEKVLHSEHNHFMEKMNKQVFKAGDLAPHDYGLMFVCGGHGALYDFPHAKHLQNIAQDIYKRGGVIGAVCHGPAMLPGIHDENGDSVIKDKTVTGFTTKGEIMIKVIDKMREDHLHTIADMAQTANAEYVPPEDPWDDFCKVDGRIVTGANPQSATNTARDTIKVYEGIVNE”, “soluble”.
To “GPGSMEAVGTADRPSLEFCPQAQNSPQTRPLLCVRRPPETVRRRHDRNPPRDSTQTADAVPWDSSSSPPHASCTAGGYKTSRGARQMALPFLFPPPGVGQRSFVADRVHRRQHCGLAQPLPQPWLRAASRSILLGDASSALPPLDPPAARPSVCRQRLALHGSGG” belongs “not soluble”; to “GPGSMEDRNSVASSVFFTGVSLVIEKEKLRQHFESVGHVVSFTIFGPAPGKDFRYGIVGYMDEKTAEEAIRRLDGTTFGERAMRVTAARSTTLHGPLRAGPGGGGSGPADHSTFRKRPREPYPSLNSSRPPYGPGMGRGGGMRAPIARVSFSAQQQQKQEQSQQPTTDKAGRETMQFPRFYTDPILGRDGSLVLDALRGMATEEAYSAVEQLRVLALERPNEAKRLLHNNPALKSAVIMTLQHAGRIPLGSLPRDAYQSRRAAEAEAELAQPLPPQQPTPSQQSALPTPQQTPPQPPAESLKPAKKEARSAAKSGEARGARKRDTATGSASASAAVPSESQTSLVRPSTPMTEAERDEVLELIQSMSEEDVERVLTMSARDFAQVPDPAQRKQLEVLQKRLLVMSRDL”, “soluble”.

Source of the values: the DeepSol protein solubility set.
